According to patent US20260008852A1:

Columns and labels:
[1] = biological target: His-tagged human B7-H3 (human) (UniProt Q5ZPR3); assay: ELISA, coated His-tagged antigen, scFv-Fc 1 ug/ml
[2] = biological target: His-tagged human B7-H3 (human) (UniProt Q5ZPR3); assay: ELISA OD450 on hu B7-H3 over OD450 on mu B7-H3
[3] = biological target: His-tagged mouse B7-H3 (mouse) (UniProt Q8VE98); assay: ELISA, coated His-tagged antigen, scFv-Fc 1 ug/ml
Sequence of His-tagged mouse B7-H3 (mouse) (Q8VE98 29-244 limits assumed): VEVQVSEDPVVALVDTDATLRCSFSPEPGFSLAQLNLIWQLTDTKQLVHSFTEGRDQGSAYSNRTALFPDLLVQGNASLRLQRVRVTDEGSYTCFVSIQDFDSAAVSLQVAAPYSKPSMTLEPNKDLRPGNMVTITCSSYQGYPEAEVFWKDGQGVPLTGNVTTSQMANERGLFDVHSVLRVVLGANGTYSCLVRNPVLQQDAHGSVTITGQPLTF

Sequence of His-tagged human B7-H3 (human) (Q5ZPR3 other isoform, or with tags, fused parts or gaps limits assumed): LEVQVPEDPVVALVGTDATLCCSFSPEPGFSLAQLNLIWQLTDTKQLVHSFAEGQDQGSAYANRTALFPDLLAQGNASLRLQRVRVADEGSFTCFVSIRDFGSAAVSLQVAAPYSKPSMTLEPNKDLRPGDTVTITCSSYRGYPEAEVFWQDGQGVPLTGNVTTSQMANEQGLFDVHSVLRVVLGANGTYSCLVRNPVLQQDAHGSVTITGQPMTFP

ELISA OD450 @ 1 ug/ml [1]	hu:mu ratio [2]	ELISA OD450 @ 1 ug/ml [3]	Binder
0.077 OD450	1.51		40579p1.H11 (scFv, V domains shown) VH: EVQLLESGGGLVQPGGSLRLSCAASGFTFDDYGMSWVRQAPGKGLEWVSAIRSKASSYATYYADSVKGRFTVSRDNSENTLYLQMNSLRAEDTAVYYCAKHRSNYYFMDVWGQGTTVTVSS VL: EIVLTQSPGTLSLSPGERATLSCRASQSVGSDLAWYQQRPGQAPRLLIYAASSRATDIPDRFSGSGSGTDFTLTISSLQSEDFAVYYCQQYYSWPPLTFGGGTKVEIK
0.049 OD450	1.09	0.045 OD450	40633p1.2.C11 (scFv, V domains shown) VH: EVQLLESGGGLVQPGGSLRLSCAASGFTFSSYWMSWVRQAPGKGLEWVAGINRNGGSTYYADSVKGRFTISRDNSENTLYLQVNSLRAEDTAVYYCARWNDYDIMDVWGQGTTVTVSS VL: QSVLTQPSSASGTPGQRVTISCSGSSSNVGRRAVNWYQQLPGTAPKLLISNSQRPSGVPDRFSGSKSGTSASLAISGLQSEDEADYYCATWDASLNSWVFGGGTKLTVL
